Assay results published in US9708375 (Amgen, dated 2017).

T1: human recombinant Dkk-1 (human, UniProt O94907 32-266)
T1 construct: also called human Dkk-1; human Dkk1
T1 sequence (looked up): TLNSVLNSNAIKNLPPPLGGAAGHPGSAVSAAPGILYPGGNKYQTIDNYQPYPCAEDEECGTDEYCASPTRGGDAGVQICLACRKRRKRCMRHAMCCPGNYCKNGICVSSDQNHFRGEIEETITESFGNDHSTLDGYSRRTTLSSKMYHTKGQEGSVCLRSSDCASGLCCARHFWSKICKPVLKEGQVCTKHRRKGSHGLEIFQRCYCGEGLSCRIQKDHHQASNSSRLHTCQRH


Target: T1, human recombinant Dkk-1
Experiment: AlphaScreen Dkk-1/LRP-6 inhibition

Binder	binding result
CPASYFQCRNNNHCYPMEWRCDGFQDCEDGSDEKGCPYRT (designed binder) [C4229]	binds
CPSNEFMCADKMCFPLIFLCDGENDCEDGSDEVDCPSRT (designed binder) [C4234]	binds
